The target in the experiment is CD3 on T cells (Jurkat T cells; primary human T cells) (human, UniProt P07766 23-207; P04234 22-171; P09693 23-182). Nature of the experiment: flow cytometry on Jurkat T cells, APC-conjugated anti-His tag secondary antibody. In general terms: A flow cytometer gives signals particle by particle.
CD3 on T cells (Jurkat T cells; primary human T cells), sequence (P07766 23-207 limits assumed, chain 1 of 3): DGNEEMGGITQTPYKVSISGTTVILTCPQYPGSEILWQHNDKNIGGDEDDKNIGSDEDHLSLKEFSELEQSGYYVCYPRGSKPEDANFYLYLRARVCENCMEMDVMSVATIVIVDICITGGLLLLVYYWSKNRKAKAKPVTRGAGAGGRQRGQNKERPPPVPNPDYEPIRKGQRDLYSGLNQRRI
CD3 on T cells (Jurkat T cells; primary human T cells), sequence (P04234 22-171 limits assumed, chain 2 of 3): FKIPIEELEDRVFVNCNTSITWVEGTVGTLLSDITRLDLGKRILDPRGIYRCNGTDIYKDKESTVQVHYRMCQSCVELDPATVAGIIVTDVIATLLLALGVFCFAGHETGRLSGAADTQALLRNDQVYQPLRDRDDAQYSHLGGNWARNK
CD3 on T cells (Jurkat T cells; primary human T cells), sequence (P09693 23-182 limits assumed, chain 3 of 3): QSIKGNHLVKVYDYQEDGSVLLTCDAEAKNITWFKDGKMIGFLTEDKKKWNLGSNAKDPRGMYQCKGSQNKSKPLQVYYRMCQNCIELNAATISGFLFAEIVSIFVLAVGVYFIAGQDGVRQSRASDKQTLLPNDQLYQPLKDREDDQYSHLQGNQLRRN

Experimental: Each multi-specific reagent was then screened for binding to Jurkat T cells. Jurkat T cells were plated into individual wells of a 96-well plate (˜100,000 cells per well in 200 ul ImmunoCult™-XF T Cell Expansion Medium (StemCell Technologies)). […] As a control, CHO cell culture medium alone was added. Following incubation for two hours, cells were washed and stained in 50 μl FACS buffer (PBS (Gibco)/2% FBS (LabTech)) containing a 1/100 dilution of an APC-conjugated anti-His tag secondary antibody (BioLegend). Cells were washed again and resuspended in 100 μl FACS buffer plus 0.1 μg/ml DAPI live/dead staining dye (Roche). Cell samples were run on a MACSQuant® Analyzer 10 Flow Cytometer and analyzed using the FlowJo (v10) software.

B1: CM04P (anti-PEG _ anti-EpCAM) (bispecific antibody)
chain: QIQLVQSGPELKKPGETVKISCKASGYTFKNYGMNWVKQAPGKGLKWMGWINTYTGQPIYANDFKGRFAFSLETSASTAYLQINNLKNEDTATYFCARDWGPYWGQGTLVIVSASPNSASHSGSAPQTSSAPGSQNIMMTQSPSSLAVSAGEKVTVNCKSSQSVLYSSNQMNYLAWYQQKPGQSPKLLIYWASTRESGVPDRFTGSGSGTDFTLTISSVQTEDLAVYYCLQYLSSWTFGGGTKLEIKGGSSRSSSSGGGGSGGGGQVKLQQSGPELKKPGETVKISCKASGYTFTNYGMNWVKQAPGKGLKWMGWINTYTGESTYADDFKGRFAFSLETSASAAYLQINNLKNEDTATYFCARFAIKGDYWGQGTTVTVSSSPNSASHSGSAPQTSSAPGSQDIVLTQSPFSNPVTLGTSASISCRSTKSLLHSNGITYLYWYLQKPGQSPQLLIYQMSNLASGVPDRFSSSGSGTDFTLRISRVEAEDVGVYYCAQNLEIPRTFGGGTKLEIKGGGGSHHHHHHHH
notes: Intended as a negative control; also called αPEG/αEPCAM
Regarding B1, the binding result is reported as “no binding (tested: 20 µl of CHO culture supernatant)”.

The values are drawn from US20250353931A1 (CHIMERIS UK, published 2025).
